{
  "source": "paper PMC3465764",
  "substrate": "NC(=O)c1cnccn1",
  "test": "steady-state enzyme kinetics",
  "type": "biochemical, Acinetobacter baumannii",
  "data": [
    {"protein": "AbPncA (Acinetobacter baumannii ATCC 19606 = CIP 70.34 = JCM 6841) (protein) MKMNKQPQNSALVVVDVQNGFTPGGNLAVADADTIIPTINQLAGCFENVVLTQDWHPDNHISFAANHPGKQPFETIELDYGSQVLWPKHCIQGTHDAEFHPDLNIPTAQLIIRKGFHAHIDSYSAFMEADHTTMTGLTGYLKERGIDTVYVVGIATDFCVAWTALDAVKQGFKTLVIEDACKGIDLNGSLEQAWQTMQQQGVVRIQSTDLLNEC", "values": [
      {"measurement": "Km", "result": 106.9, "unit": "µM"}
    ]}
  ]
}
